According to PMC10371074, “Allosteric control of dynamin-related protein 1-catalyzed mitochondrial fission through a conserved disordered C-terminal Short Linear Motif” (Research Square, 2023):
Several values for one entry are separate records, joined by “and”; a condition that tells them apart may be missing. Equal values may be shown once.

B1: human Drp1 (isoform 3) ΔCT4, last four residues of the CT-SLiM removed (enzyme, UniProt O00429-4 1-695, looked up)
chain: MEALIPVINKLQDVFNTVGADIIQLPQIVVVGTQSSGKSSVLESLVGRDLLPRGTGIVTRRPLILQLVHVSQEDKRKTTGEENGVEAEEWGKFLHTKNKLYTDFDEIRQEIENETERISGNNKGVSPEPIHLKIFSPNVVNLTLVDLPGMTKVPVGDQPKDIELQIRELILRFISNPNSIILAVTAANTDMATSEALKISREVDPDGRRTLAVITKLDLMDAGTDAMDVLMGRVIPVKLGIIGVVNRSQLDINNKKSVTDSIRDEYAFLQKKYPSLANRNGTKYLARTLNRLLMHHIRDCLPELKTRINVLAAQYQSLLNSYGEPVDDKSATLLQLITKFATEYCNTIEGTAKYIETSELCGGARICYIFHETFGRTLESVDPLGGLNTIDILTAIRNATGPRPALFVPEVSFELLVKRQIKRLEEPSLRCVELVHEEMQRIIQHCSNYSTQELLRFPKLHDAIVEVVTCLLRKRLPVTNEMVHNLVAIELAYINTKHPDFADACGLMNNNIEEQRRNRLARELPSAVSRDKVASGGGGVGDGVQEPTTGNWRGMLKTSKAEELLAEEKSKPIPIMPASPQKGHAVNLLDVPVPVARKLSAREQRDCEVIERLIKSYFLIVRKNIQDSVPKAVMHFLVNHVKDTLQSELVGQLYKSSLLDDLLTESEDMAQRRKEAADMLKALQGASQIIAEIRE
notes: Dynamin-related protein 1 (Drp1), human, isoform 3 (699 aa residues), with the last four residues removed; also called ΔCT4 Drp1; ΔCT4/6
B2: mouse GIPC-1 (GAIP interacting protein, C-terminus 1), full length (natural protein, UniProt Q9Z0G0 1-333, looked up)
chain: MPLGLGRRKKAPPLVENEEAEPSRSGLGVGEPGPLGGSAAGESQMGLPPPPAALRPRLVFHTQLAHGSPTGRIEGFTNVKELYGKIAEAFRLPAAEVMFCTLNTHKVDMDKLLGGQIGLEDFIFAHVKGQRKEVEVFKSEEALGLTITDNGAGYAFIKRIKEGSVIDHIQLISVGDMIEAINGQSLLGCRHYEVARLLKELPRGRTFTLKLTEPRKAFDMISQRSAGGHPGSGPQLGTGRGTLRLRSRGPATVEDLPSAFEEKAIEKVDDLLESYMGIRDTELAATMVELGKDKRNPDELAEALDERLGDFAFPDEFVFDVWGAIGDAKVGRY
notes: N-terminal IDR, GH1, PDZ and GH2 domains; GST removed after purification by HRV3C proteolysis; also called full-length GIPC-1; source: subcloned in pGEX-6P1, expressed and purified using standard protocols; aggregates removed by centrifugation and/or gel filtration; not shown: GST, N-terminal, cleaved
B3: human dynamin-related protein 1 (Drp1) isoform 3, wild type, N-terminally His6-tagged (enzyme, UniProt O00429-4 1-699, looked up)
chain: MEALIPVINKLQDVFNTVGADIIQLPQIVVVGTQSSGKSSVLESLVGRDLLPRGTGIVTRRPLILQLVHVSQEDKRKTTGEENGVEAEEWGKFLHTKNKLYTDFDEIRQEIENETERISGNNKGVSPEPIHLKIFSPNVVNLTLVDLPGMTKVPVGDQPKDIELQIRELILRFISNPNSIILAVTAANTDMATSEALKISREVDPDGRRTLAVITKLDLMDAGTDAMDVLMGRVIPVKLGIIGVVNRSQLDINNKKSVTDSIRDEYAFLQKKYPSLANRNGTKYLARTLNRLLMHHIRDCLPELKTRINVLAAQYQSLLNSYGEPVDDKSATLLQLITKFATEYCNTIEGTAKYIETSELCGGARICYIFHETFGRTLESVDPLGGLNTIDILTAIRNATGPRPALFVPEVSFELLVKRQIKRLEEPSLRCVELVHEEMQRIIQHCSNYSTQELLRFPKLHDAIVEVVTCLLRKRLPVTNEMVHNLVAIELAYINTKHPDFADACGLMNNNIEEQRRNRLARELPSAVSRDKVASGGGGVGDGVQEPTTGNWRGMLKTSKAEELLAEEKSKPIPIMPASPQKGHAVNLLDVPVPVARKLSAREQRDCEVIERLIKSYFLIVRKNIQDSVPKAVMHFLVNHVKDTLQSELVGQLYKSSLLDDLLTESEDMAQRRKEAADMLKALQGASQIIAEIRETHLW
notes: Dynamin-related protein 1 (Drp1), human, isoform 3, 699 aa residues; the last six residues R694-W699 (RETHLW) are the CT-SLiM; also called WT Drp1; WT; not shown: His6 (36 aa-residue N-terminal tag), N-terminal, kept
B4: human Drp1 (isoform 3) ΔCT6, last six residues (whole CT-SLiM) removed (enzyme, UniProt O00429-4 1-693, looked up)
chain: MEALIPVINKLQDVFNTVGADIIQLPQIVVVGTQSSGKSSVLESLVGRDLLPRGTGIVTRRPLILQLVHVSQEDKRKTTGEENGVEAEEWGKFLHTKNKLYTDFDEIRQEIENETERISGNNKGVSPEPIHLKIFSPNVVNLTLVDLPGMTKVPVGDQPKDIELQIRELILRFISNPNSIILAVTAANTDMATSEALKISREVDPDGRRTLAVITKLDLMDAGTDAMDVLMGRVIPVKLGIIGVVNRSQLDINNKKSVTDSIRDEYAFLQKKYPSLANRNGTKYLARTLNRLLMHHIRDCLPELKTRINVLAAQYQSLLNSYGEPVDDKSATLLQLITKFATEYCNTIEGTAKYIETSELCGGARICYIFHETFGRTLESVDPLGGLNTIDILTAIRNATGPRPALFVPEVSFELLVKRQIKRLEEPSLRCVELVHEEMQRIIQHCSNYSTQELLRFPKLHDAIVEVVTCLLRKRLPVTNEMVHNLVAIELAYINTKHPDFADACGLMNNNIEEQRRNRLARELPSAVSRDKVASGGGGVGDGVQEPTTGNWRGMLKTSKAEELLAEEKSKPIPIMPASPQKGHAVNLLDVPVPVARKLSAREQRDCEVIERLIKSYFLIVRKNIQDSVPKAVMHFLVNHVKDTLQSELVGQLYKSSLLDDLLTESEDMAQRRKEAADMLKALQGASQIIAEI
notes: Dynamin-related protein 1 (Drp1), human, isoform 3 (699 aa residues), with the last six residues R694-W699 removed; also called ΔCT6 Drp1; DCT6 Drp1

Experiments:
[1] = molecular target: the molecule itself; assay: SEC-MALS; nucleotide-free apo state in solution; Superose 6 10/300 GL column; 5 uM protein at injection (Fig. 1E), other injection concentrations in Fig. S2C
[2] = molecular target: the molecule itself; assay: SEC-MALS; full-length GIPC-1, unliganded, 10 uM at injection; Superdex 200 10/300 GL column; dimer to monomers
[3] = molecular target: B3; assay: negative-stain EM; Drp1 (1.5 uM) pre-incubated with GIPC-1 (6 uM) for 15 min at room temperature, then CL-containing liposomes (50 uM total lipid) for 15 min; equimolar and 1:4 ratios; details: both partners purified
[4] = molecular target: B4; assay: negative-stain EM; 2-D class averages; apo Drp1 (2 uM) with GIPC-1 (8 uM), 1:4 molar ratio; details: both partners purified
[5] = molecular target: the molecule itself; assay: negative-stain EM; 2-D class averages of single particles; Drp1 at 2 uM, apo state and with 1 mM GTP

Binder	stoichiometry N [1]	stoichiometry N [2]	binding result [3]	binding result [4]	stoichiometry N [5]
B1	2 and 4				
B2		2	binds	binds	
B3	4				2
B4	2 and 4				
